{
  "source": "patent US20090123474A1",
  "about": "“COMBINATION OF ANGIOPOIETIN-2 ANTAGONIST AND OF VEGF-A, KDR AND/OR FLTL ANTAGONIST FOR TREATING CANCER” (ASTRAZENECA AB, priority 2005, published 2009)",
  "molecules": {"B1": {"name": "mAb 3.19.3: fully human anti-Angiopoietin-2 monoclonal antibody, variable regions SEQ ID NO: 5-8; also binds Angiopoietin-1 (antibody, V domains shown)", "VH": "QVQLVESGGGVVQPGRSLRLSCAASGFTFTNYGMHWGRQAPGKGLEWVAVISHDGNNKYYVDSVKGRFTISRDNSKNTLYLQMNSLRAEDTAVYYCAREGIDFWSGLNWFDPWGQGTLVTVSSA", "VL": "EIVLTQSPGTLSLSPGERATLSCRASQSITGSYLAWYQQKPGQAPRLLICGASSWATGIPDRFSGSGSGTDFTLTISRLEPEDFAVYYCQQYSSSPITFGQGTRLEIKR"}},
  "key": {"[1]": {"target": "T1, Angiopoietin-2 binding to Tie-2 (Homo sapiens, UniProt O15123)", "T1 construct": "purchased R&D Systems, Inc. BT623 (Angiopoietin-2, biotinylated); 313-TI-100 (Tie-2/Fc)", "T1 sequence (O15123 19-496)": "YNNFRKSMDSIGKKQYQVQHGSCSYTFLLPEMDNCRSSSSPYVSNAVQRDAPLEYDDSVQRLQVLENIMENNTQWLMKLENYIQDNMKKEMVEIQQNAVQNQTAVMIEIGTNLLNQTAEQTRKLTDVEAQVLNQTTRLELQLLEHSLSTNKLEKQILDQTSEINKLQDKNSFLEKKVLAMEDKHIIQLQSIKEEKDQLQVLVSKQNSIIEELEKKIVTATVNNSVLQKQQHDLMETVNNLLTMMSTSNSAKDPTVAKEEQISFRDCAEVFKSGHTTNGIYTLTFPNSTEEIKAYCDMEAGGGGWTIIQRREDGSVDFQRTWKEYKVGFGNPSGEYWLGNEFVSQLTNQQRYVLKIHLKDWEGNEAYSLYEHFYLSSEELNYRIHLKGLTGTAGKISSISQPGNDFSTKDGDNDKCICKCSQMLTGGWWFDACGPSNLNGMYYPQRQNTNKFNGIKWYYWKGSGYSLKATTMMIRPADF", "assay": "Competitive binding assay (modified ELISA): inhibition of Angiopoietin-2 binding to Tie-2", "method": "As discussed above, Angiopoietin-2 exerts its biological effect by binding to the Tie-2 receptor. Monoclonal antibodies that inhibited Angiopoietin-2/Tie-2 binding were identified by a competitive binding assay using a modified ELISA. The mAb used were products of micro-purification from 50 ml of exhaustive supernatants of the hybridoma pools that were specific for Angiopoietin-2 (see above). 96-well Nunc Immplates™ were coated with 100 μl of recombinant human Tie-2/Fc fusion protein (R&D Systems, Inc., Cat. No. 313-TI-100) at 4 μg/ml by incubating overnight at 4° C. The plates were washed four times using Phosphate Buffer Saline (PBS) with a Skan™ Washer 300 station (SKATRON). The wells were blocked by 100 μl of ABX-blocking buffer (0.5% BSA, 0.1% Tween, 0.01% Thimerosal in PBS) for 1 hour.\nBiotinylated recombinant human Angiopoietin-2 (R&D Systems, Inc. Cat. No. […] The plates were incubated at room temperature for two hours before the unbound molecules were washed off. Bound biotinylated Angiopoietin-2 was then detected using 100 μl/well of Streptavidin-HRP conjugate at 1:200 by incubating at room temperature for half an hour. After washing twice, the bound Streptavidin was detected by HRP substrate (R&D Systems, Cat. No. DY998). The plates were incubated for 30 minutes before 450 stop solution (100 μl/well, BioFX, Cat# BSTP-0100-01) was added to terminate the reaction. The light absorbance at 450 nm was determined by a Spectramax Plus reader.\nSoluble recombinant Tie-2/Fc fusion protein at 10-fold molar excess to Angiopoietin-2 was used as a positive control. At this concentration, Tie-2/Fc inhibited binding of Angiopoietin-2 to immobilized Tie-2 by 80%.\nTo quantitate the inhibitory activities of the mAb on Angiopoietin-2 binding to Tie-2, the titer was determined for purified mAbs from the top candidates using a competitive binding assay. Each concentration of the mAb was tested in duplicate. The concentration-response relationship was found by curve fitting using Graphpad Prism™ graphic software (non-linear, Sigmoid curve). The maximal inhibition (efficacy) and IC50 (potency) were calculated by the software."}, "[2]": {"system": "A431 human tumour xenografts", "assay": "A431 xenograft efficacy study (Study A)", "format": "in vivo", "conditions": "3.19.3 10 mg/kg 2×wk i.p., VTKI 3 mg/kg/day p.o.", "method": "(§1) The anti-tumor activity of monoclonal antibody 3.19.3 in combination with the VTKI 4-(4-fluoro-2-methylindol-5-yloxy)-6-methoxy-7-(3-piperidinopropoxy)quinazoline was evaluated in a xenograft model of human skin epidermoid carcinoma (Study A) and in a model of colorectal cancer (Study B) by using the A431 and Colo205 cell lines respectively.\n(§2) A431 and Colo205 cells were cultured in flasks as routine until the cells reached sub-confluence. Immunodeficient 6-8 week old female mice (Ncr/nu/nu) were used. The cells were harvested and suspended in Matrigel. A cell suspension containing 1 to 5×10^6 cells was injected subcutaneously into the flank of the mice. The mice were randomized into different groups, each containing 10-15 mice. When the tumour volume reached 200 mm^3, the mice were randomized in each groups and the treatments were initiated. mAb 3.19.3 10 mg/kg in saline was injected intraperitoneally, twice per week for 2 weeks. 4-(4-fluoro-2-methylindol-5-yloxy)-6-methoxy-7-(3-piperidinopropoxy)quinazoline was treated peroral daily at doses ranging from 1.5 to 6 mg/kg in water containing 1% Tween80. The dimensions of each tumor were measured twice per week. The volume of the tumor was calculated as: Volume=Length×(Width)^2×0.5 (cm^3)."}, "[3]": {"system": "human Colo205 colon tumour xenografts", "assay": "Colo205 xenograft efficacy study (Study B)", "format": "in vivo", "conditions": "3.19.3 10 mg/kg 2×wk i.p., VTKI 6 mg/kg/day p.o.", "method": "as §1, §2"}, "[4]": {"system": "human LoVo colon tumour xenografts", "format": "in vivo", "conditions": "3.19.3 10 mg/kg 2×wk i.p., Zactima 50 mg/kg/day p.o.", "method": "The anti-tumor activity of monoclonal antibody 3.19.3 was evaluated in the LoVo xenograft model of colorectal cancer. Briefly, LoVo cells were cultured in flasks as routine until the cells reached sub-confluence. Immunodeficient 8 week old male NCr nude mice were used. Cell suspensions containing 3×10^6 cells were injected subcutaneously into the right flank of the mice, and after the tumour volume reached 200 mm^3, the mice were randomized in groups and the treatments were initiated. mAb 3.19.3 10 mg/kg in saline was injected intraperitoneally, twice per week for 2 weeks. Zactima™ was treated peroral daily at doses ranging from 25 to 50 mg/kg in water containing 1% Tween80. The dimensions of each tumor were measured twice per week. The volume of the tumor was calculated as: Volume=Length×(Width)^2×0.5 (cm^3)."}, "[5]": {"system": "human SW620 colon tumour xenografts", "assay": "SW620 xenograft efficacy study", "format": "in vivo", "conditions": "3.19.3 10 mg/kg 2×wk i.p., DC101 15 mg/kg 2×wk i.p., 3 weeks", "method": "The anti-tumor activity of mAb 3.19.3 was evaluated in combination with monoclonal antibody DC101 which is directed against VEGFR-2/KDR, in the SW620 colorectal cancer xenograft model. Briefly, SW620 cells were cultured under routine tissue culture conditions in flasks until the cells reached sub-confluence. Immunodeficient 8-10 week old NCr nude mice were used, and cell suspensions containing approximately 1×10^6 cells were injected subcutaneously into the right flank of the mice. After the tumour volumes reached 100 mm^3, the mice were randomized in groups and the treatments were initiated. The mAb 3.19.3 10 mg/kg in saline was injected intraperitoneally, twice per week for 3 weeks. The mAb DC101 15 mg/kg in saline was also injected intraperitoneally, following the same schedule of twice per week for 3 weeks. The dimensions of each tumor were measured twice per week. The volume of the tumor was calculated as: Volume=Length×(Width)^2×0.5 (cm^3)."}},
  "data": [
    {"molecule": "B1", "values": [
      {"measurement": "EC50", "setting": "[1]; potency, competitive binding of Angiopoietin-2 to Tie-2, purified mAb", "result": 0.7976, "unit": "mg/L"},
      {"measurement": "Efficacy*", "setting": "[1]; ratio of bound Angiopoietin-2 with mAb (30 μg/ml) versus without mAb", "result": 0.3945},
      {"measurement": "% tumor growth inhibition", "setting": "[2]", "result": 46, "unit": "%"},
      {"measurement": "% inhibition", "setting": "[3]", "result": 35, "unit": "%"},
      {"measurement": "tumour inhibition", "setting": "[4]", "result": 48, "unit": "%"},
      {"measurement": "tumour inhibition", "setting": "[5]", "result": 48, "unit": "%"}
    ]}
  ]
}
